For one substance, per cent of the H chains in the 7S peak and per cent of the I131 label (L chains) in the >7S fraction results are on record in paper PMC2137869.

“And” between values parts separate entries of the source, which are not always exact repeats. Equal values may be shown once.

Test [1] has as its target H chains of non-specific rabbit gamma2 globulin (rabbit). In words: sucrose density gradient ultracentrifugation.
Test [2] addresses H chains of rabbit gamma2 globulin, first Sephadex G-100 peak (Fraction H) (rabbit). Nature of the test: sucrose density gradient ultracentrifugation.

“L chains of non-specific rabbit gamma2 globulin”: in test [1], the per cent of the H chains in the 7S peak is 60 per cent and 70 per cent. The substance further showed a per cent of the I131 label (L chains) in the >7S fraction in test [2] of 9 per cent.
